The record followed here is patent US20190300618A1 (Merck Sharp & Dohme, published 2019).

Test [1] deals with human CD27 (A59T), expressed on cells (human) (UniProt P26842). Kind of test: cell-based or functional assay.
In test [2] the target is human CD27 (wild type), expressed on cells (human) (UniProt P26842). As to the kind of experiment: cell-based or functional assay.
Test [3] has as its target D32A. As to the kind of experiment: flow cytometry, CHO-K1; sub-column 1 of 2.
Another test concerns the target D43A. As to the kind of experiment: flow cytometry, CHO-K1; sub-column 1 of 2.
In another test the target is E9A. As to the kind of experiment: flow cytometry, CHO-K1; sub-column 1 of 2. On the technique in general: A flow cytometer gives signals particle by particle.
For test [4], the target named is F28A. Kind of test: flow cytometry, CHO-K1; sub-column 1 of 2.
Another test concerns the target G16A. Kind of test: flow cytometry, CHO-K1; sub-column 1 of 2.
The target of another test is G89A. As to the kind of experiment: flow cytometry, CHO-K1; sub-column 1 of 2.
The target in a further test is H36A. As to the kind of experiment: flow cytometry, CHO-K1; sub-column 1 of 2.
Another test concerns the target H60A. Kind of test: flow cytometry, CHO-K1; sub-column 1 of 2.
In the next test the target is I46A. As to the kind of experiment: flow cytometry, CHO-K1; sub-column 1 of 2.
The next test concerns the target K17A. Kind of test: flow cytometry, CHO-K1; sub-column 1 of 2.
In the next test the target is K31A. Kind of test: flow cytometry, CHO-K1; sub-column 1 of 2.
For another test, the target named is K38A. As to the kind of experiment: flow cytometry, CHO-K1; sub-column 1 of 2.
The next test addresses N88A. Kind of test: flow cytometry, CHO-K1; sub-column 1 of 2.
The next test has as its target P44A. Kind of test: flow cytometry, CHO-K1; sub-column 1 of 2.
The next test concerns the target P8A. As to the kind of experiment: flow cytometry, CHO-K1; sub-column 1 of 2.
A further test deals with Q15A. As to the kind of experiment: flow cytometry, CHO-K1; sub-column 1 of 2.
A further test deals with Q41A. As to the kind of experiment: flow cytometry, CHO-K1; sub-column 1 of 2.
In another test the target is Q91A. As to the kind of experiment: flow cytometry, CHO-K1; sub-column 1 of 2.
In the next test the target is R10A. As to the kind of experiment: flow cytometry, CHO-K1; sub-column 1 of 2.
The target of another test is R37A. Kind of test: flow cytometry, CHO-K1; sub-column 1 of 2.
A further test has as its target R87A. Kind of test: flow cytometry, CHO-K1; sub-column 1 of 2.
For the next test, the target named is R93A. As to the kind of experiment: flow cytometry, CHO-K1; sub-column 1 of 2.
The target in another test is S63A. Kind of test: flow cytometry, CHO-K1; sub-column 1 of 2.
Another test addresses V30A. Kind of test: flow cytometry, CHO-K1; sub-column 1 of 2.
Test [5] addresses V49A. As to the kind of experiment: flow cytometry, CHO-K1; sub-column 1 of 2.
Test [6] addresses W13A. Kind of test: flow cytometry, CHO-K1; sub-column 1 of 2.
For the next test, the target named is W90A. Kind of test: flow cytometry, CHO-K1; sub-column 1 of 2.
Test [7] concerns the target human CD27 (wild type), expressed on cells (human) (UniProt P26842). As to the kind of experiment: flow cytometry MFI on CD4+ T cells from peripheral blood.
The target of test [8] is Macaca mulatta CD27 (mmCD27), expressed on cells (Macaca mulatta (rhesus); same entry given for cynomolgus monkey). Kind of test: flow cytometry MFI on CD4+ T cells from rhesus peripheral blood.
Test [9] deals with T1, W13A.
T1 construct: also called hCD27 W13A
T1 receptor: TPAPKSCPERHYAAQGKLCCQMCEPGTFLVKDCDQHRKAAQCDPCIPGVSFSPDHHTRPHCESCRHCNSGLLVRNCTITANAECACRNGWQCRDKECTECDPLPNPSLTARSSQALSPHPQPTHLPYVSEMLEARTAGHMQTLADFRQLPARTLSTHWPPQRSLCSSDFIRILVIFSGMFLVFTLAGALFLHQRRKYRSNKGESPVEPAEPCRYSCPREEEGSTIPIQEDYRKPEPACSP
As to the kind of experiment: flow cytometry, CHO-K1; single column.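 Further: CHO-K1 cells transiently transfected with hCD27 alanine mutant constructs, anti-hCD27 antibody binding measured by flow cytometry, 30 min at 4 °C, wild-type hCD27 binding taken as 100%.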

Test [10] deals with T2, F28A.
T2 construct: also called hCD27 F28A
T2 receptor: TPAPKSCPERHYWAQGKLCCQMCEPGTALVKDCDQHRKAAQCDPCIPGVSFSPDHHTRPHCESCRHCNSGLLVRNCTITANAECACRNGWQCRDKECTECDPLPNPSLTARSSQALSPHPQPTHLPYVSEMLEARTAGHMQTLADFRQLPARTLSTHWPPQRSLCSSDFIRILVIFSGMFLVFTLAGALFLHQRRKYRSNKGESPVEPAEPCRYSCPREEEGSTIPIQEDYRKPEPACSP
Kind of test: flow cytometry, CHO-K1; single column.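 Further: CHO-K1 cells transiently transfected with hCD27 alanine mutant constructs, anti-hCD27 antibody binding measured by flow cytometry, 30 min at 4 °C, wild-type hCD27 binding taken as 100%.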

Test [11] concerns the target T3, D32A.
T3 construct: also called hCD27 D32A
T3 receptor: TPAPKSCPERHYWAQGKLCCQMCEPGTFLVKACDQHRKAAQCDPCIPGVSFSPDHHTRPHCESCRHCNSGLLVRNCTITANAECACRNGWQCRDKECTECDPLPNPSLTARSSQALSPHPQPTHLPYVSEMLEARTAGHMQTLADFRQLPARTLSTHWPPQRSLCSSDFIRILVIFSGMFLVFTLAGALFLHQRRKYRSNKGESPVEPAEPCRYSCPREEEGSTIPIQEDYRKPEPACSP
Kind of test: flow cytometry, CHO-K1; single column.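 Further: CHO-K1 cells transiently transfected with hCD27 alanine mutant constructs, anti-hCD27 antibody binding measured by flow cytometry, 30 min at 4 °C, wild-type hCD27 binding taken as 100%.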

Test [12] concerns the target T4, V49A.
T4 construct: also called hCD27 V49A
T4 receptor: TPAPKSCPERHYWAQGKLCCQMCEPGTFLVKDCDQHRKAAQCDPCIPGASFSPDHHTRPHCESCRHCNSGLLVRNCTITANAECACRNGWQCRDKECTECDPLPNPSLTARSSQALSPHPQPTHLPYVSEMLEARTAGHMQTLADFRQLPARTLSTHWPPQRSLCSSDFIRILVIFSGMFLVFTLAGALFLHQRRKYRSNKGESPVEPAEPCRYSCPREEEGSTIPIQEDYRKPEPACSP
As to the kind of experiment: flow cytometry, CHO-K1; single column.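 Further: CHO-K1 cells transiently transfected with hCD27 alanine mutant constructs, anti-hCD27 antibody binding measured by flow cytometry, 30 min at 4 °C, wild-type hCD27 binding taken as 100%.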

Consider 1F5 hIgG1 (antibody), for which the Emax (fold change), NF-κB-luciferase reporter assay was determined as 1.3 fold change in [1] and 1.48 fold change in test [2]. Moreover, the figures for the Fold Change values at 2.5 µg/ml, NF-κB-luciferase reporter assay in [1] and in [2] were 1.23 fold change and 1.34 fold change, respectively. In test [2], this molecule had an NF-κB luciferase activity, 10 µg/ml fold change (FIG. 7A) of 2.23 fold change. The NF-κB luciferase activity, 10 µg/ml fold change (FIG. 7B) in test [2] is 1.73 fold change. Also, the % of WT hCD27 binding (geo mean FITC) with D32A [3] stood at 115%; with D43A, 202%; with E9A it was 95.4%; with F28A [4], 113%; with G16A it was 96%; with G89A, 103%. The % of WT hCD27 binding (geo mean FITC) in the test with H36A is 116%; with H60A, 176%; in the test with I46A it was 128%; with K17A, 95.1%; in the test with K31A, 205%; with K38A, 96.5%. Besides, the % of WT hCD27 binding (geo mean FITC) with N88A was found to be 153%; with P44A it was 150%; with P8A, 82.5%; with Q15A, 99%; with Q41A it was 104%; in the test with Q91A it was 156%. The % of WT hCD27 binding (geo mean FITC) with R10A was 105%; in the test with R37A it was 109%; with R87A, 40.8%; with R93A it was 120%; with S63A it was 144%; with V30A, 171%. The results for the % of WT hCD27 binding (geo mean FITC) with V49A [5], in the test with W13A [6] and with W90A were 143%, 89.5% and 42.5%, respectively. Further, the EC50 in test [7] came to 1.54 nM; in test [8], 1.58 nM.

B1: hCD27.15-6B (humanized hCD27.15, human IgG4, Clone 6B) (antibody, V domains shown)
VH: QVQLVQSGAEVKKPGASVKVSCKASGFIIKATYMHWVRQAPGQRLEWMGRIDPANGETKYDPKFQVRVTITADTSASTAYMELSSLRSEDTAVYYCARYAWYFDVWGQGTLVTVSS
VL: DIQMTQSPSSLSASVGDRVTITCRASENIYSFLAWYQQKPGKAPKLLIYHAKTLAEGVTSRFSGSGSGTDFTLTISSLQPEDSATYYCQHYYGSPLTFGQGTRLEIKR
notes: humanized version of hCD27.15 from WO2012/004367 with identical CDR regions; also called hCD27.15 (humanized 6B); hCD27.15 6B humanized antibody
Regarding B1, the “% of WT hCD27 binding (geo mean FITC)” value with W13A [9] turned out to be 71.4%; with F28A [10], 59.4%; with D32A [11] it was 50.6%; in the test with V49A [12] it was 69%.

One may read the EC50 as the midpoint of the concentration-response curve.
